Data set [1] in a line: dual luciferase reporter, HEPM. Conditions: glycan lost; control: MEIS2-WT in shOGT HEPM cells. (In general: In a reporter assay the amount or activity of a reporter protein is the signal.)
Data set [2] can be described thus: anti-MEIS2 or anti-HA IP, ubiquitin blot. To be noted: control: DMSO.
The nature of data set [3]: CHX chase, immunoblot, endogenous MEIS2 in HEPM. Conditions: control: DMSO. Background: A western blot detects proteins with antibodies after separation by electrophoresis.
Data set [4] can be described thus: Western blot of MEIS2 ± MG132, HEPM. To be noted: glycan lost; control: DMSO.

B1: MEIS2: S237A (protein)
parent chain: MAQRYDELPHYGGMDGVGVPASMYGDPHAPRPIPPVHHLNHGPPLHATQHYGAHAPHPNVMPASMGSAVNDALKRDKDAIYGHPLFPLLALVFEKCELATCTPREPGVAGGDVCSSDSFNEDIAVFAKQVRAEKPLFSSNPELDNLMIQAIQVLRFHLLELEKVHELCDNFCHRYISCLKGKMPIDLVIDERDGSSKSDHEELSGSSTNLADHNPSSWRDHDDATSTHSAGTPGPSSGGHASQSGDNSSEQGDGLDNSVASPGTGDDDDPDKDKKRQKKRGIFPKVATNIMRAWLFQHLTHPYPSEEQKKQLAQDTGLTILQVNNWFINARRRIVQPMIDQSNRAGFLLDPSVSQGAAYSPEGQPMGSFVLDGQQHMGIRPAGLQSMPGDYVSQGGPMGMSMAQPSYTPPQMTPHPTQLRHGPPMHSYLPSHPHHPAMMMHGGPPTHPGMTMSAQSPTMLNSVDPNVGGQVMDIHAQ
As for B1, the “other: transcriptional activation of promoter” value in data set [1] was “decreases”.

B2: MEIS2: Thiamet G (protein)
parent chain: MAQRYDELPHYGGMDGVGVPASMYGDPHAPRPIPPVHHLNHGPPLHATQHYGAHAPHPNVMPASMGSAVNDALKRDKDAIYGHPLFPLLALVFEKCELATCTPREPGVAGGDVCSSDSFNEDIAVFAKQVRAEKPLFSSNPELDNLMIQAIQVLRFHLLELEKVHELCDNFCHRYISCLKGKMPIDLVIDERDGSSKSDHEELSGSSTNLADHNPSSWRDHDDATSTHSAGTPGPSSGGHASQSGDNSSEQGDGLDNSVASPGTGDDDDPDKDKKRQKKRGIFPKVATNIMRAWLFQHLTHPYPSEEQKKQLAQDTGLTILQVNNWFINARRRIVQPMIDQSNRAGFLLDPSVSQGAAYSPEGQPMGSFVLDGQQHMGIRPAGLQSMPGDYVSQGGPMGMSMAQPSYTPPQMTPHPTQLRHGPPMHSYLPSHPHHPAMMMHGGPPTHPGMTMSAQSPTMLNSVDPNVGGQVMDIHAQ
Turning to B2, the “other: ubiquitination” value in data set [2] (glycan gained) is reported as “decreases”. Besides, the degradation_or_half_life entry in data set [3] (glycan gained) is given as “increases”.

B3: MEIS2: OSMI-1 (protein)
parent chain: MAQRYDELPHYGGMDGVGVPASMYGDPHAPRPIPPVHHLNHGPPLHATQHYGAHAPHPNVMPASMGSAVNDALKRDKDAIYGHPLFPLLALVFEKCELATCTPREPGVAGGDVCSSDSFNEDIAVFAKQVRAEKPLFSSNPELDNLMIQAIQVLRFHLLELEKVHELCDNFCHRYISCLKGKMPIDLVIDERDGSSKSDHEELSGSSTNLADHNPSSWRDHDDATSTHSAGTPGPSSGGHASQSGDNSSEQGDGLDNSVASPGTGDDDDPDKDKKRQKKRGIFPKVATNIMRAWLFQHLTHPYPSEEQKKQLAQDTGLTILQVNNWFINARRRIVQPMIDQSNRAGFLLDPSVSQGAAYSPEGQPMGSFVLDGQQHMGIRPAGLQSMPGDYVSQGGPMGMSMAQPSYTPPQMTPHPTQLRHGPPMHSYLPSHPHHPAMMMHGGPPTHPGMTMSAQSPTMLNSVDPNVGGQVMDIHAQ
As to B3, in data set [4], the expression_or_secretion entry is recorded as “decreases”. Further, in data set [2] (glycan lost), the “other: ubiquitination” value is “increases”. The degradation_or_half_life entry in data set [3] (glycan lost) is reported as “decreases”.
